Reference: paper PMC5767221

Molecular target: mGlu5-NanoLuc (UniProt P31424)
Assay: FRET or BRET; intermolecular BRET imaging in live hippocampal neurons expressing mGlu5-NanoLuc (donor) and Venus-Homer (acceptor); recorded for 30 min in soma and dendritic spines; control KCl 3 mM, and before and during depolarization with KCl 55 mM

Sequence of UniProt P31424 (P31424 21-1203): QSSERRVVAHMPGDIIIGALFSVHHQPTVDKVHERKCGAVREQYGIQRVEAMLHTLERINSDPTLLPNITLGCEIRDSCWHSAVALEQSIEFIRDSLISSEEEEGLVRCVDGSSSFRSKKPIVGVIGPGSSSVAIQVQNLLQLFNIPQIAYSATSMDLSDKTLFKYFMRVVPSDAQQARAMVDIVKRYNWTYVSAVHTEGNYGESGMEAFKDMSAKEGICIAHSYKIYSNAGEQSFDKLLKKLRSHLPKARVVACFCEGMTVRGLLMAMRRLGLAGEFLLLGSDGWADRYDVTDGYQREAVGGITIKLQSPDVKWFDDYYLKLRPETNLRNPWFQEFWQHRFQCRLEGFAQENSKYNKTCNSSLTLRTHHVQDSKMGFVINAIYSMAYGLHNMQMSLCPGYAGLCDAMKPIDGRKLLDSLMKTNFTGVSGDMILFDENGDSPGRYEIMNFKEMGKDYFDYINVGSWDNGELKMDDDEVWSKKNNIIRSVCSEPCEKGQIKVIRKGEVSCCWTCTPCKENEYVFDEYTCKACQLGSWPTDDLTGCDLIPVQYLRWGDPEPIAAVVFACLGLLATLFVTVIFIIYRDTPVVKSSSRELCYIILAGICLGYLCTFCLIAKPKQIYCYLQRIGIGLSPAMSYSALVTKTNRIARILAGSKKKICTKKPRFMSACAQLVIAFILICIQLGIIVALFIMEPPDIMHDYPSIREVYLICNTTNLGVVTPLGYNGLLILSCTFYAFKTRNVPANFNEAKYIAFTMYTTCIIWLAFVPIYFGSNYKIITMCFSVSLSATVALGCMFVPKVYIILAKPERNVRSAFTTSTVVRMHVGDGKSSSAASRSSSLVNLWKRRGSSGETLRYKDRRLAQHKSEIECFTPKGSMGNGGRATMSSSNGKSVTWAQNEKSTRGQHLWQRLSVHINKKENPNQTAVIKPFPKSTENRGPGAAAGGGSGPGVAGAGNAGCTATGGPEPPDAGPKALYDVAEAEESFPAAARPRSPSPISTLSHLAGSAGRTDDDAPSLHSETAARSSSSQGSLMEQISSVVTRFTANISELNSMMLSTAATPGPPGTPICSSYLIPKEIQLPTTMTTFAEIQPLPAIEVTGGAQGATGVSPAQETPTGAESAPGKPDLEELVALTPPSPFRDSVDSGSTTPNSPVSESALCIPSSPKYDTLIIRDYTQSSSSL

For “Venus-Homer (from UniProt Q9Z214 1-366) (natural protein)”, which drop of BRET signal with KCl 55 mM against before depolarization (soma) is on record?
The drop of BRET signal with KCl 55 mM against before depolarization (soma) was 15%.

And the drop of BRET signal with KCl 55 mM against before depolarization (spines)?
The drop of BRET signal with KCl 55 mM against before depolarization (spines) was 16%.
